Experimental data reported in patent US20240197906A1, “ANTI-cMET ANTIBODY DRUG CONJUGATES AND [sequence] USES THEREOF” (Mythic Therapeutics, Inc., priority 2022, published 2024).
Entries after “also recorded” stand apart in the source; their conditions may differ. Non-standard residues stand in square brackets, D forms with d. Residues, ends and D or L forms follow the SMILES beside them. *: point of attachment. Dolaproine = CO[C@@H]([C@@H]1CCCN1)[C@@H](C)C(=O)O; Dil = CC[C@H](C)[C@H](NC)[C@@H](CC(=O)O)OC; X1 = C[C@@H](N*)[C@@H](O)c1ccccc1; NMeV = CN[C@H](C(=O)O)C(C)C

Columns and labels:
EBC-1 cells [1] = test: Cell cycle arrest assay; type: cell-based, human; conditions: 10 nM, 24 hours
Procedure: Cell Cycle Arrest Assay. Briefly, EBC-1 cells were cultured in standard culture media (Eagle's minimum essential medium+10% fetal bovine serum) and conditions recommended by the vendor. Cells were plated at a density of 2×10^4 cells per well and incubated at 37° C. for 24 hours. […] Plates were incubated for 24 hours at 37° C. At the end of the culture period, test articles were removed from the plate. Cells were trypsinized, washed, and fixed in 70% ethanol for 30 minutes. Cells were washed, stained with propidium iodide staining using a cell cycle analysis kit (Abcam), and assessed by flow cytometry.

EBC-1 cells [2] = test: ADCC effector function with PBMCs; type: cell-based, human; conditions: PBMCs from all donors, vs IgG1 isotype control
EBC-1 cells [3] = test: Complement dependent cytotoxic assay; type: cell-based; conditions: 30% human complement
Procedure: Complement Dependent Cytotoxic Assay. EBC-1 cells were incubated with serially diluted test articles: Q397-noV205C or non-binding antibody. For the technical control, Raji cells, which expresses CD20 on the cell surface, were incubated with serially diluted test articles: anti-CD20 (research grade recombinant anti-CD20 rituximab, catalog number A2009) or non-binding antibody (human IgG1 isotype control antibody, catalog number BE0297). Briefly, EBC-1 and Raji cells were added to a 96-well U-bottom plate at a density of 2.5×10^4 cells/well. Serially diluted test articles were added to the plate. The starting concentration of all test articles was 100 nM. A 3-fold dilution was performed for 9 concentration points and added to the test plate in duplicates. The plate was then incubated for 30 minutes at 37° C. At the end of the culture period, either heat inactivated or pooled human complement sera at a final concentration of 30% diluted in culture media (RPMI) was added to the plate. The plate was then incubated at 37 °C for two hours and cell lysis was assessed using CellTiter-Glo.

EBC-1 cells [4] = test: ADCP effector function; type: cell-based, human; conditions: vs IgG1 isotype control
NCI-H441 cells = test: Cell proliferation assay (CellTiter-Glo); type: cell-based, human; conditions: 10 nM, 4 days, serum starved
[5] = test system: phosphorylation of ERK1/2 and Akt1 in NCI-H441 cells; test: Cell signaling assay (ELISA); type: cell-based, human; conditions: 10 μg/mL, 30 minutes
Procedure: Cell Signaling Assay. Briefly: NCI-H441 cells were cultured in standard culture media (RPMI-1640 Medium+10% fetal bovine serum) using conditions recommended by the vendor. For the cell signaling assay, NCI-H441 cells were seeded in 6-well plates at 300,000 cells per well in culture media. The next day, the cells were washed with serum-free medium twice and then replenished with 3 mL RPMI+0.2% fetal bovine serum.
The following day, cells were treated with 50 ng/ml HGF or 10 μg/mL of test articles and incubated for 30 minutes at 37° C. Following the 30-minute stimulation, the treatment medium was aspirated, the cells were washed 2 times in an excess volume of ice-cold phosphate buffered saline and collected by cell scraping on ice in 250 μL ice-cold lysis buffer per well and transferred to pre-chilled tubes. […] Lysates were thawed on ice for 1 hour with occasional vortexing, and protein concentrations were measured using the BCA protein assay according to the manufacturer's instructions. Lysates were diluted in lysis buffer to final concentration 0.5 mg/mL, and 100 μL of each sample was assessed using commercially available ELISA kits to detect total ERK1/2 and Akt1 and their phosphorylated forms. ELISAs were performed and analyzed according to the manufacturer's instructions. […]

recombinant human cMET = recombinant human cMET (human, UniProt P08581 25-932, limits assumed); test: BLI (Octet), antibody captured on AHC sensor, recombinant human cMET as analyte, pH 7.4; BLI, recombinant human cMET as analyte, pH 7.4
[6] = molecular target: recombinant cynomolgus monkey cMET (cynomolgus monkey, UniProt A0A2K5UM36 25-932); test: BLI (Octet), antibody captured on AHC sensor, recombinant cynomolgus monkey cMET as analyte, pH 7.4
[7] = molecular target: human cMET on cMET+ human cancer cells (human, UniProt P08581 25-1390); test: cell-based or functional assay
rat cMET = rat cMET (rat, UniProt P97523 25-935, limits assumed); test: ELISA or BLI (the filing does not say which)
mouse cMET = mouse cMET (mouse, UniProt P16056 25-931, limits assumed); test: ELISA or BLI (the filing does not say which)
Chain of mouse cMET (P16056 25-931 limits assumed): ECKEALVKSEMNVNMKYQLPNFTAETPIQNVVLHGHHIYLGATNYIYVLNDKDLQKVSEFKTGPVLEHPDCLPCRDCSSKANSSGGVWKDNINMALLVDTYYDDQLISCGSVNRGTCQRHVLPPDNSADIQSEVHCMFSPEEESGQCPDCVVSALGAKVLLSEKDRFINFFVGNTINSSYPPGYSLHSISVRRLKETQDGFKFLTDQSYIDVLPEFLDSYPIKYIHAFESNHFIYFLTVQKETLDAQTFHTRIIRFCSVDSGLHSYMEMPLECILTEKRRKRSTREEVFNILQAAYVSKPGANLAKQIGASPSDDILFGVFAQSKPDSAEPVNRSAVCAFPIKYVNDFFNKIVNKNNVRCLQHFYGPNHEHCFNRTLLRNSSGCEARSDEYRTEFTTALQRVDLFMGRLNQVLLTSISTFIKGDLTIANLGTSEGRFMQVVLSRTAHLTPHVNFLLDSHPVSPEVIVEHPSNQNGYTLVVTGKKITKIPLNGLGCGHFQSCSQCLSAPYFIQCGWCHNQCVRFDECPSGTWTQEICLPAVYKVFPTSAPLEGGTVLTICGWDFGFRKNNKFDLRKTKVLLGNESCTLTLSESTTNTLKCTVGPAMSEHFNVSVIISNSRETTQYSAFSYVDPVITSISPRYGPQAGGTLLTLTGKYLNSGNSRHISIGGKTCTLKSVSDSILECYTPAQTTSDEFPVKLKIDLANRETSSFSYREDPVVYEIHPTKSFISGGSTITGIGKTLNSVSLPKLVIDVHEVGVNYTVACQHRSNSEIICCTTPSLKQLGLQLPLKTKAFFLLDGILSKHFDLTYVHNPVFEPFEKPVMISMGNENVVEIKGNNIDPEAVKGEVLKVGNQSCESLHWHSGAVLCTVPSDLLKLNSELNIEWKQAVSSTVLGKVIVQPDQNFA

Chain of rat cMET (P97523 25-935 limits assumed): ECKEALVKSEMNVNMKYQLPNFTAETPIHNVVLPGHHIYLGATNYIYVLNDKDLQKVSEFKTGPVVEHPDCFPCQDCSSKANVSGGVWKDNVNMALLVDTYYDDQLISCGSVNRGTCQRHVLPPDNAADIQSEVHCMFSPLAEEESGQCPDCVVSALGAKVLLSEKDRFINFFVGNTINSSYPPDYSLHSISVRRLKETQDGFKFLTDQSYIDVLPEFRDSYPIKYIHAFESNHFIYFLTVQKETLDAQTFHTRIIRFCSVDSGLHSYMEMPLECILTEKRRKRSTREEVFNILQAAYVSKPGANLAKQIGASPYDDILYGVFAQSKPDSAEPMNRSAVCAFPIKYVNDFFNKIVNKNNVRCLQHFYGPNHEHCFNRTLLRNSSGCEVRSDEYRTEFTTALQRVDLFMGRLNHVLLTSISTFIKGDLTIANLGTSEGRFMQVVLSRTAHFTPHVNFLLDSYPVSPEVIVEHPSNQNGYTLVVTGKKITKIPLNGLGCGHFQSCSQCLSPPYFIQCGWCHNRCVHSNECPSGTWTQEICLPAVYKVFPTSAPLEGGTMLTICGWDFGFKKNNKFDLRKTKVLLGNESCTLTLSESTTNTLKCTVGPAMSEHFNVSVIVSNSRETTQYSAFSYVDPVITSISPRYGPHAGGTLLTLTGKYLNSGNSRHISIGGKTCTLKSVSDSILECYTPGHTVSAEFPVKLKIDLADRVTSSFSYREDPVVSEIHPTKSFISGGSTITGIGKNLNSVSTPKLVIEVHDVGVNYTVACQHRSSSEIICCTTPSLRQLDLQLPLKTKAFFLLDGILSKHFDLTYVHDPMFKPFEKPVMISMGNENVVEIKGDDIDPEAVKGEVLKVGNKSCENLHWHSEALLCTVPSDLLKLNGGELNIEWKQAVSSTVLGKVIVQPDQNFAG
Chain of recombinant human cMET (P08581 25-932 limits assumed): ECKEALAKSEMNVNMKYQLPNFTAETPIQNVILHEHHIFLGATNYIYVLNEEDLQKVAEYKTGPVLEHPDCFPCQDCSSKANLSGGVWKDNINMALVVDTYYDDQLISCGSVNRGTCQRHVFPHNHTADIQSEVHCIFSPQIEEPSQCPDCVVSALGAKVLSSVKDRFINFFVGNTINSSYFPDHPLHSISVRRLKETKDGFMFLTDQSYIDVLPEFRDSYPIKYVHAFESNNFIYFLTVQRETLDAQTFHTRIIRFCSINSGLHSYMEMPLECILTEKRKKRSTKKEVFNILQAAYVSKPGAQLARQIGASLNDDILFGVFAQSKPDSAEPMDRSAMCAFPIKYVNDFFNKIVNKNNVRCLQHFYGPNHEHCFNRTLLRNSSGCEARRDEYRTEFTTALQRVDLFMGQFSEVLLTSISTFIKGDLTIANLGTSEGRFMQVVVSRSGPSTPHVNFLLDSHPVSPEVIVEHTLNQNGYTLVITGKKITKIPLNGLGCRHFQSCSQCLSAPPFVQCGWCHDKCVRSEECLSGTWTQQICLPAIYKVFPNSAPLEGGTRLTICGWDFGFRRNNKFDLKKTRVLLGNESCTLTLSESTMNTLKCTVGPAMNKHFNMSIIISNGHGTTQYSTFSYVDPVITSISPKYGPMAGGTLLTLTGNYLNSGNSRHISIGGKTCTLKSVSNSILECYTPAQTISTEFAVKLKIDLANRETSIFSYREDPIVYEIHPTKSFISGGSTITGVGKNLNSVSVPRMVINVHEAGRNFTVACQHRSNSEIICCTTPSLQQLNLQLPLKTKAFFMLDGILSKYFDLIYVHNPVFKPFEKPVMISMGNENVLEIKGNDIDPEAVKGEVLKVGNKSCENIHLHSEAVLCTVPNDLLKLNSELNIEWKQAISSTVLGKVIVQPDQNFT
Chain of recombinant cynomolgus monkey cMET (A0A2K5UM36 entry or part of it limits assumed): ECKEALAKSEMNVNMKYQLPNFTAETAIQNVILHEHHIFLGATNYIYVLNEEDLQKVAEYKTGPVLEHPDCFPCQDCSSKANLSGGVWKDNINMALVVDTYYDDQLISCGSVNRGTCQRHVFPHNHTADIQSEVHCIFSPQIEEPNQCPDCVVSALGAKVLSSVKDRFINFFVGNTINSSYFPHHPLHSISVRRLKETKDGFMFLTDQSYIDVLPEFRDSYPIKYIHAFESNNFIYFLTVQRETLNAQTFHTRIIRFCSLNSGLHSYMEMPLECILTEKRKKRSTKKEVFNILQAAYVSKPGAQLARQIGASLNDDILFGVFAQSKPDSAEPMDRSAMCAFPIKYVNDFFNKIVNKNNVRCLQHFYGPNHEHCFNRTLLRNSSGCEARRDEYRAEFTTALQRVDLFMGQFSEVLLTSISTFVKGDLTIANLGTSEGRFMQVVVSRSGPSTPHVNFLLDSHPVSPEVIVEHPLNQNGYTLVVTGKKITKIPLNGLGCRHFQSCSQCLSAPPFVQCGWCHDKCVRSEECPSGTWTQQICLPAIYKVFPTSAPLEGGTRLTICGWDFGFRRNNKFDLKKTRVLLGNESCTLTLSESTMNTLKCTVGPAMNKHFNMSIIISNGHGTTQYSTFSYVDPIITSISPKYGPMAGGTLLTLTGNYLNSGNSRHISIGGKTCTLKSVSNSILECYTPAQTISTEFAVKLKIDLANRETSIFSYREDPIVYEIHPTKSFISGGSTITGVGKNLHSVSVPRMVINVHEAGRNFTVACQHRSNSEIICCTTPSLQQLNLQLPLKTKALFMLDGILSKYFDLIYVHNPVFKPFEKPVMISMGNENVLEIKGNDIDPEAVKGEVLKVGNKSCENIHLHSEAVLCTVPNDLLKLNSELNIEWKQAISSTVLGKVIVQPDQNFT
Chain of human cMET on cMET+ human cancer cells (P08581 25-1390): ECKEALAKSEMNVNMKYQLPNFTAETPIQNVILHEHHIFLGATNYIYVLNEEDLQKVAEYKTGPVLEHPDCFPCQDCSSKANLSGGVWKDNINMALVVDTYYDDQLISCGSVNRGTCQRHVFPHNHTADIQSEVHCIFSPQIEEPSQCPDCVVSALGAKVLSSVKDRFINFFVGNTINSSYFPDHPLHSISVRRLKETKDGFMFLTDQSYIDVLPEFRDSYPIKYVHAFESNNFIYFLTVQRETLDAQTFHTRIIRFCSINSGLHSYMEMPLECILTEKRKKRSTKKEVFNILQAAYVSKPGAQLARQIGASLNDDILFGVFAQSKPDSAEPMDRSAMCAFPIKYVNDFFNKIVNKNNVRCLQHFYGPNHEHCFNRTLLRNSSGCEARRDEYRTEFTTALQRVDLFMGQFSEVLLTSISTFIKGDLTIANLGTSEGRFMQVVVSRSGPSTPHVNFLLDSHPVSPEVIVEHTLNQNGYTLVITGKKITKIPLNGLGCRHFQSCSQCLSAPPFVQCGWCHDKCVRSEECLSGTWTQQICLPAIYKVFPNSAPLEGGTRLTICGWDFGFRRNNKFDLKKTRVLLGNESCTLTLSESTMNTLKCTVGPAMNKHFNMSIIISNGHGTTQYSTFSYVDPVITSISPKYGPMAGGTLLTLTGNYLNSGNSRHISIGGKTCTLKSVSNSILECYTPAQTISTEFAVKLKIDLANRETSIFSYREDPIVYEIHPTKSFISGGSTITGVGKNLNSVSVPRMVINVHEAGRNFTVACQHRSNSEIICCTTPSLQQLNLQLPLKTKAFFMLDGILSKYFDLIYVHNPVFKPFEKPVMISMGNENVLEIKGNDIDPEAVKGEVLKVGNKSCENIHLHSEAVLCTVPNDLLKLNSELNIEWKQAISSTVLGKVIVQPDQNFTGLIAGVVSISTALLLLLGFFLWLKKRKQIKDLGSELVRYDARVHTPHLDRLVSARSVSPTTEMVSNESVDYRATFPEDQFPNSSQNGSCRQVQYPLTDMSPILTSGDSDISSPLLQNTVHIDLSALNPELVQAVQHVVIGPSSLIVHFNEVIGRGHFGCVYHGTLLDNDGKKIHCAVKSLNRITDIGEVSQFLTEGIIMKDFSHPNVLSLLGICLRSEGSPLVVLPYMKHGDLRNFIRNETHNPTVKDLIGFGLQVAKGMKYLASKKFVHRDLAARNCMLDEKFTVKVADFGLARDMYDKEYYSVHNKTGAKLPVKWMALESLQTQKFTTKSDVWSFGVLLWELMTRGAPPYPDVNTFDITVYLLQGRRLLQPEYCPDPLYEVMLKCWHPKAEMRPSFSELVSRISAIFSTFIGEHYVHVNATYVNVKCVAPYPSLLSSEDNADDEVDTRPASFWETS

## CC[C@H](C)[C@@H]([C@@H](CC(=O)N1CCC[C@H]1[C@H](OC)[C@@H](C)C(=O)N[C@H](C)[C@@H](O)c1ccccc1)OC)N(C)C(=O)[C@@H](NC(=O)[C@@H](NC)C(C)C)C(C)C [MMAE, monomethyl auristatin E] (H-[NMeV]V[Dil][Dolaproine]-X1)
EBC-1 cells [1]
  percentage of cells in G2-M phase: 68.6%

## Q397-noV205C: Anti-cMET antibody of MYTX-011 without the V205C substitution; SEQ ID NO: 75 and SEQ ID NO: 81
EBC-1 cells [2]
  ADCC activity: minimal to no; also recorded: Minimal ADCC activity
EBC-1 cells [3]
  CDC activity (EBC-1 cell lysis): minimal to no; also recorded: did not induce EBC-1 cell lysis
EBC-1 cells [4]
  ADCP activity: minimal to no; also recorded: no ADCP activity
NCI-H441 cells
  proliferation of cMET+ NCI-H441 cells: did not increase
[5]
  phosphorylation of ERK1/2 or Akt1: minimal phosphorylation

B1: MYTX-011 mAb (antibody, V domains shown)
VH: QVQLVQSGAEVKKPGASVKVSCKASGYTFTDYYMHWVRQAPGQGLEWMGRVNPNRRGTTYNQKFEGRVTMTTDTSTSTAYMELRSLRSDDTAVYYCARANWLDYWGQGTTVTVSS
VL: DIQMTQSPSSLSASVGDRVTITCSVSSSVSSIHLHWYQQKPGKAPKLLIYHTSNLASGVPSRFSGSGSGTDFTLTISSLQPEDFATYYCQVYSGYPLTFGGGTKVEIKR
notes: also called Q397
Recombinant human cMET
  Kd: 4 nM
[6]
  Kd: 9.44 nM
[7]
  uptake of pHrodo-conjugated mAb in NCI-H1975 cells by live cell imaging, at 24 hours, over the parent mAb: 3 fold
Rat cMET
  binding result: no binding
Mouse cMET
  binding result: no binding

B2: MYTX-011 (antibody, IgG1, V domains shown)
VH: QVQLVQSGAEVKKPGASVKVSCKASGYTFTDYYMHWVRQAPGQGLEWMGRVNPNRRGTTYNQKFEGRVTMTTDTSTSTAYMELRSLRSDDTAVYYCARANWLDYWGQGTTVTVSS
VL: DIQMTQSPSSLSASVGDRVTITCSVSSSVSSIHLHWYQQKPGKAPKLLIYHTSNLASGVPSRFSGSGSGTDFTLTISSLQPEDFATYYCQVYSGYPLTFGGGTKVEIKR
modifications: vcMMAE (mc-vc-PAB-MMAE) linked to the engineered cysteine at position 98 of the light chain constant domain ("V205C"); DAR 2
notes: Antibody drug conjugate: humanized triple hinge IgG1 kappa antibody Q397 conjugated site-specifically to vcMMAE, drug to antibody ratio 2; also called anti-cMET pH-ADC; pH-ADC
Rat cMET
  binding result: no binding
Mouse cMET
  binding result: no binding
